Results published in PMC3464217.

Biological target: recombinant gp160 (HIV (IIIB or MN/LAI))
Experiment: SPR
Settings: bispecific antibody

| Substance | Ka [M⁻¹] | Kd [nM] |
| --- | --- | --- |
| HY-[Fx2-Hx4-Fx2]-7B2 (from UniProt P01857) | 4.6e+10 | 0.021 |
| HY-[Hx4]-7B2 (from UniProt P01857) | 1.7e+10 | – |
